Patent publication US20220356229A1
Numbering of substitutions follows the chain as printed.

B1: antibody 851 (antibody, V domains shown)
VH: QITLKESGPTLVKPTQTLTLTCTFSGFSLSTNGVGMGWIRQPPGKALEWLALIYWDDDQFYSPSLKSRLTITRDTSKNQVVLTMTNMDPVDTATYYCAQAFYESFGFYSWGQGTLVTVSS
VL: NFMLTQPHSVSESPGKTVIISCTRSIGSIASNYVQWYQQRPGSAPTIVVFEDNERPSGVPDRFSGSIDRSSNSASLTISGLKTEDEADYYCQSYDGSSELVFGGGTKLTVLG
B2: antibody 896 (antibody, V domains shown)
VH: EVQLVESGGGVVQPGGSLRLSCAASGFTFDDYAMHWVRQVPGKGLEWVSLISGDGGSTYYADSVKGRFTISRDNSKNSLYVQMNSLRTEDTALYYCVKDRGGSGWDLNHYYYGMDVWGQGTTVTVSS
VL: DIQLTQSPSFLSASVGDRVTVTCRASQGISSYLAWYQQKPGKAPKLLIYAAYTLQSGVPSRFSGSGSETEFTLTISSLQPEDFATYYCQQVKSYPLTFGGGTKVEIKR
B3: antibody 923 (antibody, V domains shown)
VH: EVQLVESGGGVVRPGGSLRLSCAASGFIFDDYDMTWVRQAPGKGLEWVSGISWNGGNTGYADSVKGRFTISRDNAKNSLYLQMNSLRAEDTALYHCAVIMSPIPRYSGYDWAGGAFDIWGQGTMVTVSS
VL: SSELTQDPAVSVALGQTVRITCQGDSLRSYYASWYQQKPGQVPILVIYDKNNRPSGIPDRFSGSSSGNTASLTITGAQAEDEADYYCNSRDSSGNAVVFGGGTKLTVLG
B4: antibody 1037 (antibody, V domains shown)
VH: QITLKESGPTLVKPTQTLTLTCTFSGFSLSTSGVGVGWIRQPPGKALEWLALIYWDDDKRYSPSLKSRLTITKDTSKNQVVLTMTNMDPVDTATYYCAHHTITRINDYWGQGTLVTVSS
VL: QSALTQPASVSGSPGQSITISCTATSSDVGAYNYVSWYQQHPGKAPKLMIYDVSKRPSGVSNRFSGSKSGNTASLTISGLQAEDEADYYCSSYTSSSTVFGGGTKLTVLG
B5: antibody 1404 (antibody, V domains shown)
VH: B4 VH with T31I, I39L, T72S, T83K, M87I, T101S, T103S, R104T, N106F, Y108H
VL: B4 VL with A31D, Y51F, D52E, K55D, V60I, S95T, T98A
B6: antibody 1444 (antibody, V domains shown)
VH: QVQLVQSGAEVKKPGASVKVSCKASGYTFTAYYMHWVRQAPGQGLEWMGWINPNSDDTNYAQKFQGRVTMTRDTSISTAYMELSRLRSDDTAVYYCAREEGVFTIGDRYFDLWGRGTLVSVSS
VL: QTVVTQEPSFSVSPGGTVTLTCGLSSGSVSTSYYPSWYQQTPGQAPRTLIYNTNTRSSGVPDRFSGSILGNKAALTITGAQADDESDYYCVLYMGSGIWVFGGGTKLTVLG
B7: antibody 1538 (antibody, V domains shown)
VH: EVQLLESGGGLVQPGGSLRLSCAASGFTFSSYAMSWVRQAPGKGLEWVSGISDSGGSTYYADYVKGRFTISRDNSKDTLYLQMNSLRAEDTAVYYCAKDRGNEYALTHYYYYAMDVWGQGTTVTVSS
VL: DIQMTQSPSSLSASVGDRVTITCRASQSISSYLNWYQQKPGKAPKLLIYAAYSLQSGVPSRFSGGGSGTDFTLTISSLQPEDFATYFCQQSYSTPITFGQGTRLEIKR

The binders below were run against SARS-CoV-2 full length Spike protein, lineage B.1.351 (SARS-CoV-2).

Binder	bead assay binding signal
B1	681
B2	946
B3	435
B4	985
B5	941
B6	802
B7	928

Each binder was assayed against SARS-CoV-2 full length Spike protein, lineage B.1.1.7 (SARS-CoV-2).

Binder	bead assay binding signal
B1	545
B2	692
B3	604
B4	749
B5	719
B6	626
B7	706
